Source: US20260001928A1 (CORTERIA PHARMACEUTICALS, priority 2022, published 2026)
*1 amine or outer side, *2 acyl side, *3 side chain or, on linkers, in order; H or OH if unused. Where no end group is shown, it is not given here. Side-chain parts run from the residue outwards. [ ]: non-standard residue; d: D form. The star is where a group is joined. C20 diacid = O=C(O)CCCCCCCCCCCCCCCCCCC(=O)*; γGlu = O=C(O)[C@H](CCC(=O)[*:2])N[*:1]; NMeI = CC[C@H](C)[C@H](NC)C(=O)O; AEEA = NCCOCCOCC(=O)O; Aib = CC(C)(N)C(=O)O

T1: CRF1R (corticotropin-releasing factor receptor 1), on the CRF1R-overexpression CHO-K1 cell line clone 2 (UniProt P34998 24-415, limits assumed)
T1 sequence (looked up): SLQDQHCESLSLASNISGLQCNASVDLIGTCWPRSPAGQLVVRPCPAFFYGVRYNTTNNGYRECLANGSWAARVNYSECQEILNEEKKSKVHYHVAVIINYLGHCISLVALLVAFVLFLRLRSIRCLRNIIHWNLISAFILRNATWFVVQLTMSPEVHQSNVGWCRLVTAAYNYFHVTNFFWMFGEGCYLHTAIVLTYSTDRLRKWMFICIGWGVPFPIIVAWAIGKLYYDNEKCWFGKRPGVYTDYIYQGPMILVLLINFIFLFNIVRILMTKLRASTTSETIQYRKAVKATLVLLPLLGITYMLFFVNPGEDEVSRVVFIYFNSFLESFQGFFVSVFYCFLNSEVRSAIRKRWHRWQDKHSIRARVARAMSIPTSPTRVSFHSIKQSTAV

B1: peptide of SEQ ID NO: 243 (peptide)
peptide: Ac-IVLSLD[dV]PIKLK([γGlu-γGlu-C20 diacid])KILLEQEKQKKQREQAETN[Aib]QILAQV-NH2
SMILES: CC[C@H](C)[C@H](NC(C)=O)C(=O)N[C@H](C(=O)N[C@@H](CC(C)C)C(=O)N[C@@H](CO)C(=O)N[C@@H](CC(C)C)C(=O)N[C@@H](CC(=O)O)C(=O)N[C@@H](C(=O)N1CCC[C@H]1C(=O)N[C@H](C(=O)N[C@@H](CCCCN)C(=O)N[C@@H](CC(C)C)C(=O)N[C@@H](CCCCNC(=O)CC[C@H](NC(=O)CC[C@H](NC(=O)CCCCCCCCCCCCCCCCCCC(=O)O)C(=O)O)C(=O)O)C(=O)N[C@@H](CCCCN)C(=O)N[C@H](C(=O)N[C@@H](CC(C)C)C(=O)N[C@@H](CC(C)C)C(=O)N[C@@H](CCC(=O)O)C(=O)N[C@@H](CCC(N)=O)C(=O)N[C@@H](CCC(=O)O)C(=O)N[C@@H](CCCCN)C(=O)N[C@@H](CCC(N)=O)C(=O)N[C@@H](CCCCN)C(=O)N[C@@H](CCCCN)C(=O)N[C@@H](CCC(N)=O)C(=O)N[C@@H](CCCNC(=N)N)C(=O)N[C@@H](CCC(=O)O)C(=O)N[C@@H](CCC(N)=O)C(=O)N[C@@H](C)C(=O)N[C@@H](CCC(=O)O)C(=O)N[C@H](C(=O)N[C@@H](CC(N)=O)C(=O)NC(C)(C)C(=O)N[C@@H](CCC(N)=O)C(=O)N[C@H](C(=O)N[C@@H](CC(C)C)C(=O)N[C@@H](C)C(=O)N[C@@H](CCC(N)=O)C(=O)N[C@H](C(N)=O)C(C)C)[C@@H](C)CC)[C@@H](C)O)[C@@H](C)CC)[C@@H](C)CC)C(C)C)C(C)C
B2: peptide of SEQ ID NO: 238 (peptide)
peptide: Ac-IVLSLD[dV]PIKLK([AEEA-AEEA-γGlu-C20 diacid])KILLEQEKQKKQREQAETN[Aib]QILAQV-NH2
SMILES: CC[C@H](C)[C@H](NC(C)=O)C(=O)N[C@H](C(=O)N[C@@H](CC(C)C)C(=O)N[C@@H](CO)C(=O)N[C@@H](CC(C)C)C(=O)N[C@@H](CC(=O)O)C(=O)N[C@@H](C(=O)N1CCC[C@H]1C(=O)N[C@H](C(=O)N[C@@H](CCCCN)C(=O)N[C@@H](CC(C)C)C(=O)N[C@@H](CCCCNC(=O)COCCOCCNC(=O)COCCOCCNC(=O)CC[C@H](NC(=O)CCCCCCCCCCCCCCCCCCC(=O)O)C(=O)O)C(=O)N[C@@H](CCCCN)C(=O)N[C@H](C(=O)N[C@@H](CC(C)C)C(=O)N[C@@H](CC(C)C)C(=O)N[C@@H](CCC(=O)O)C(=O)N[C@@H](CCC(N)=O)C(=O)N[C@@H](CCC(=O)O)C(=O)N[C@@H](CCCCN)C(=O)N[C@@H](CCC(N)=O)C(=O)N[C@@H](CCCCN)C(=O)N[C@@H](CCCCN)C(=O)N[C@@H](CCC(N)=O)C(=O)N[C@@H](CCCNC(=N)N)C(=O)N[C@@H](CCC(=O)O)C(=O)N[C@@H](CCC(N)=O)C(=O)N[C@@H](C)C(=O)N[C@@H](CCC(=O)O)C(=O)N[C@H](C(=O)N[C@@H](CC(N)=O)C(=O)NC(C)(C)C(=O)N[C@@H](CCC(N)=O)C(=O)N[C@H](C(=O)N[C@@H](CC(C)C)C(=O)N[C@@H](C)C(=O)N[C@@H](CCC(N)=O)C(=O)N[C@H](C(N)=O)C(C)C)[C@@H](C)CC)[C@@H](C)O)[C@@H](C)CC)[C@@H](C)CC)C(C)C)C(C)C
B3: peptide of SEQ ID NO: 240 (peptide)
peptide: Ac-IVLSLD[dV]PIKLK([AEEA-AEEA-γGlu-C20 diacid])KILLEQEKQKAQREQAETN[Aib]QILAQV-NH2
SMILES: CC[C@H](C)[C@H](NC(C)=O)C(=O)N[C@H](C(=O)N[C@@H](CC(C)C)C(=O)N[C@@H](CO)C(=O)N[C@@H](CC(C)C)C(=O)N[C@@H](CC(=O)O)C(=O)N[C@@H](C(=O)N1CCC[C@H]1C(=O)N[C@H](C(=O)N[C@@H](CCCCN)C(=O)N[C@@H](CC(C)C)C(=O)N[C@@H](CCCCNC(=O)COCCOCCNC(=O)COCCOCCNC(=O)CC[C@H](NC(=O)CCCCCCCCCCCCCCCCCCC(=O)O)C(=O)O)C(=O)N[C@@H](CCCCN)C(=O)N[C@H](C(=O)N[C@@H](CC(C)C)C(=O)N[C@@H](CC(C)C)C(=O)N[C@@H](CCC(=O)O)C(=O)N[C@@H](CCC(N)=O)C(=O)N[C@@H](CCC(=O)O)C(=O)N[C@@H](CCCCN)C(=O)N[C@@H](CCC(N)=O)C(=O)N[C@@H](CCCCN)C(=O)N[C@@H](C)C(=O)N[C@@H](CCC(N)=O)C(=O)N[C@@H](CCCNC(=N)N)C(=O)N[C@@H](CCC(=O)O)C(=O)N[C@@H](CCC(N)=O)C(=O)N[C@@H](C)C(=O)N[C@@H](CCC(=O)O)C(=O)N[C@H](C(=O)N[C@@H](CC(N)=O)C(=O)NC(C)(C)C(=O)N[C@@H](CCC(N)=O)C(=O)N[C@H](C(=O)N[C@@H](CC(C)C)C(=O)N[C@@H](C)C(=O)N[C@@H](CCC(N)=O)C(=O)N[C@H](C(N)=O)C(C)C)[C@@H](C)CC)[C@@H](C)O)[C@@H](C)CC)[C@@H](C)CC)C(C)C)C(C)C
B4: peptide of SEQ ID NO: 242 (peptide)
peptide: [NMeI]VLSLD[dV]PIKLK([γGlu-γGlu-C20 diacid])KILLEQEKQKEQREQAETN[Aib]QILAQV-NH2
modifications: N-terminus assumed
SMILES: CC[C@H](C)[C@H](NC)C(=O)N[C@H](C(=O)N[C@@H](CC(C)C)C(=O)N[C@@H](CO)C(=O)N[C@@H](CC(C)C)C(=O)N[C@@H](CC(=O)O)C(=O)N[C@@H](C(=O)N1CCC[C@H]1C(=O)N[C@H](C(=O)N[C@@H](CCCCN)C(=O)N[C@@H](CC(C)C)C(=O)N[C@@H](CCCCNC(=O)CC[C@H](NC(=O)CC[C@H](NC(=O)CCCCCCCCCCCCCCCCCCC(=O)O)C(=O)O)C(=O)O)C(=O)N[C@@H](CCCCN)C(=O)N[C@H](C(=O)N[C@@H](CC(C)C)C(=O)N[C@@H](CC(C)C)C(=O)N[C@@H](CCC(=O)O)C(=O)N[C@@H](CCC(N)=O)C(=O)N[C@@H](CCC(=O)O)C(=O)N[C@@H](CCCCN)C(=O)N[C@@H](CCC(N)=O)C(=O)N[C@@H](CCCCN)C(=O)N[C@@H](CCC(=O)O)C(=O)N[C@@H](CCC(N)=O)C(=O)N[C@@H](CCCNC(=N)N)C(=O)N[C@@H](CCC(=O)O)C(=O)N[C@@H](CCC(N)=O)C(=O)N[C@@H](C)C(=O)N[C@@H](CCC(=O)O)C(=O)N[C@H](C(=O)N[C@@H](CC(N)=O)C(=O)NC(C)(C)C(=O)N[C@@H](CCC(N)=O)C(=O)N[C@H](C(=O)N[C@@H](CC(C)C)C(=O)N[C@@H](C)C(=O)N[C@@H](CCC(N)=O)C(=O)N[C@H](C(N)=O)C(C)C)[C@@H](C)CC)[C@@H](C)O)[C@@H](C)CC)[C@@H](C)CC)C(C)C)C(C)C
B5: peptide of SEQ ID NO: 241 (peptide)
peptide: Ac-IVLSLD[dV]PIKLK([γGlu-γGlu-C20 diacid])KILLEQEKQKEQREQAETN[Aib]QILAQV-NH2
SMILES: CC[C@H](C)[C@H](NC(C)=O)C(=O)N[C@H](C(=O)N[C@@H](CC(C)C)C(=O)N[C@@H](CO)C(=O)N[C@@H](CC(C)C)C(=O)N[C@@H](CC(=O)O)C(=O)N[C@@H](C(=O)N1CCC[C@H]1C(=O)N[C@H](C(=O)N[C@@H](CCCCN)C(=O)N[C@@H](CC(C)C)C(=O)N[C@@H](CCCCNC(=O)CC[C@H](NC(=O)CC[C@H](NC(=O)CCCCCCCCCCCCCCCCCCC(=O)O)C(=O)O)C(=O)O)C(=O)N[C@@H](CCCCN)C(=O)N[C@H](C(=O)N[C@@H](CC(C)C)C(=O)N[C@@H](CC(C)C)C(=O)N[C@@H](CCC(=O)O)C(=O)N[C@@H](CCC(N)=O)C(=O)N[C@@H](CCC(=O)O)C(=O)N[C@@H](CCCCN)C(=O)N[C@@H](CCC(N)=O)C(=O)N[C@@H](CCCCN)C(=O)N[C@@H](CCC(=O)O)C(=O)N[C@@H](CCC(N)=O)C(=O)N[C@@H](CCCNC(=N)N)C(=O)N[C@@H](CCC(=O)O)C(=O)N[C@@H](CCC(N)=O)C(=O)N[C@@H](C)C(=O)N[C@@H](CCC(=O)O)C(=O)N[C@H](C(=O)N[C@@H](CC(N)=O)C(=O)NC(C)(C)C(=O)N[C@@H](CCC(N)=O)C(=O)N[C@H](C(=O)N[C@@H](CC(C)C)C(=O)N[C@@H](C)C(=O)N[C@@H](CCC(N)=O)C(=O)N[C@H](C(N)=O)C(C)C)[C@@H](C)CC)[C@@H](C)O)[C@@H](C)CC)[C@@H](C)CC)C(C)C)C(C)C

Tests used:
[1] = biological target: T1, CRF1R (corticotropin-releasing factor …); experiment: cell-based or functional assay
[2] = biological target: Rat CRF2 a (corticotropin-releasing factor receptor 2), on the A7R5 rat aortic smooth muscle cell line (rat, UniProt P47866 20-411); experiment: cell-based or functional assay
Sequence of Rat CRF2 a (corticotropin-releasing factor receptor 2), on the A7R5 rat aortic smooth muscle cell line (P47866 20-411): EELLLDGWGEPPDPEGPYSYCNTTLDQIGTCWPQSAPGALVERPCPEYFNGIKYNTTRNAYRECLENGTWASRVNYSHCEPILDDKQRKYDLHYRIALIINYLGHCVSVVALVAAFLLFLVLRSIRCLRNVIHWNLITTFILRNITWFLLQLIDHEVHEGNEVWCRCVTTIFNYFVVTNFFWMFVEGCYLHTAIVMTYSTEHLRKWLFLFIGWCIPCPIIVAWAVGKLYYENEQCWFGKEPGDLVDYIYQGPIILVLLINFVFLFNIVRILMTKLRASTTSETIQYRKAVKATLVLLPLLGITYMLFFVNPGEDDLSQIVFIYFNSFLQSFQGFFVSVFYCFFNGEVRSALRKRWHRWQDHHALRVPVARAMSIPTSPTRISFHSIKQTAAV

| Binder | EC50 [nM] (cAMP, CRF1R-overexpression CHO-K1 cells) [1] | Emax (% I) (cAMP, 100% = Sauvagine at 100 nM) [1] | EC50 [nM] 0% HSA (cAMP, A7R5 rat aortic smooth muscle cells) [2] |
| --- | --- | --- | --- |
| B1 | > 250 nM | 8 % I | 0.09 nM |
| B2 | > 250 nM | 12 % I | 0.09 nM |
| B3 | > 250 nM | 4 % I | 2.3 nM |
| B4 | > 250 nM | 6 % I | 0.4 nM |
| B5 | > 250 nM | 7 % I | 3.52 nM |
